Substitutions are numbered along the chain they refer to. Values joined by “and” are separate entries in the source; they are usually repeats but may differ in a detail not shown here. Equal values may be shown once.
T1: RSV F glycoprotein (NUF4) (respiratory syncytial virus)
T1 chain 1: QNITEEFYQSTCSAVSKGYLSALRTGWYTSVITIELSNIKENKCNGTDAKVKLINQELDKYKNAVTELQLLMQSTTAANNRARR
T1 chain 2: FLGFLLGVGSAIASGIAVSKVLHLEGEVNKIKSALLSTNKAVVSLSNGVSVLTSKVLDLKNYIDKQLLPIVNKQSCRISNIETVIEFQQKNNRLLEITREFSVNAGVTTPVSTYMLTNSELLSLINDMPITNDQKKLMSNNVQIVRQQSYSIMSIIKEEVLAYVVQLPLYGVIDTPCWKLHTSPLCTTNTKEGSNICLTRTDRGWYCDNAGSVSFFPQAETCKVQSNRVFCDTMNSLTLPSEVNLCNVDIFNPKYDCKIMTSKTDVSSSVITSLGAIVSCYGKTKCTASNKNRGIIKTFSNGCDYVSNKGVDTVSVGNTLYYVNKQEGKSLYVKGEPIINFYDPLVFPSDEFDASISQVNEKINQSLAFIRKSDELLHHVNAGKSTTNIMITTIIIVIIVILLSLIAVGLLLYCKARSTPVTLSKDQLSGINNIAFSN

B1: A1e9 (monoclonal antibody) (antibody, V domains shown)
VH: QVTLRESGPALVKPTQTLTLTCTFSGFSLSTPGMSVGWIRQPPGKALEWLADIWWDGKKHYNPSLKDRLTISKDTSKNQVVLKVTNMDPADTATYYCARDMIFNWYFDVWGQGTTVTVSS
VL: DIQMTQSPSTLSASVGDRVTITCSLSSRVGYMHWYQQKPGKAPKLLIYDTFKLSSGVPSRFSGSGSGTEFTLTISSLQPDDFATYYCFQGSGYPFTFGGGTKVEIK
notes: mAb with framework and constant regions of SYNAGIS; also called Ale9
B2: P11d4 (monoclonal antibody) (antibody, V domains shown)
VH: B1 VH
VL: B1 VL with L25P, F51M, K52R, S54A
notes: mAb with framework and constant regions of SYNAGIS
B3: A8c7 (monoclonal antibody) (antibody, V domains shown)
VH: B1 VH with P32A, G57D, H60S
VL: B1 VL with L25A, F51R, K52Y, L53Q, V103L
notes: as for B2
B4: P12f2 (monoclonal antibody) (antibody, V domains shown)
VH: B1 VH with G57D, W105F, Q112A
VL: B1 VL with K52Y
notes: mAb with framework and constant regions of SYNAGIS; also called Pf12
B5: A12a6 (monoclonal antibody) (antibody, V domains shown)
VH: B1 VH with P32A, H60D, W105F
VL: B1 VL with L25A
notes: as for B2
B6: P12f4 (monoclonal antibody) (antibody, V domains shown)
VH: B1 VH with W105F
VL: B1 VL with F51R, K52G, S54P
notes: as for B2
B7: 6H8 (Fab fragment) (Fab, V domains shown)
VH: B1 VH with P32A, G57D, H60D, D67S, F103T, W105F, Q112A
VL: B1 VL with L25A, R28S, S54T, V103L
B8: P12f2 (Fab fragment) (Fab, V domains shown)
VH: B1 VH with G57D, W105F, Q112A
VL: B1 VL with K52Y
notes: Fab
B9: A1e9 (Fab fragment) (Fab, V domains shown)
VH: B1 VH
VL: B1 VL
notes: Fab; also called *Ale9
B10: A13a11 (Fab fragment) (Fab, V domains shown)
VH: B1 VH with P32A, G57D, Q112A
VL: B1 VL with L25A, R28S, F51Y, K52R, L53H, S54A, V103L
notes: Fab
B11: 1X-493L1FR (Fab fragment) (Fab, V domains shown)
VH: B1 VH with P32S, G57D, H60D, D67S, D100S, F103T, Q112A
VL: B1 VL with L25A, R28S, F51S, S54A, V103L
B12: A12a6 (Fab fragment) (Fab, V domains shown)
VH: B1 VH with P32A, H60D, W105F
VL: B1 VL with L25A
notes: Fab
B13: P12f4 (Fab fragment) (Fab, V domains shown)
VH: B1 VH with W105F
VL: B1 VL with F51R, K52G, S54P
notes: Fab
B14: Y10H6 (Fab fragment) (Fab, V domains shown)
VH: B1 VH with P32A, G57D, H60D, D67S, Q112A
VL: B1 VL with L25A, R28S, F51R, K52Y, V103L
B15: M3H9 (Fab fragment) (Fab, V domains shown)
VH: B1 VH with P32A, G57D, H60D, D67S, Q112A
VL: B1 VL with L25A, R28S, F51Y, L53Q, S54T, V103L
B16: H3-3F4 (Fab fragment) (Fab, V domains shown)
VH: B1 VH with P32A, G57D, H60D, D67S, Q112A
VL: B1 VL with L25A, R28S, S54A, V103L
B17: DG (Fab fragment) (Fab, V domains shown)
VH: B1 VH with P32A, G57D, H60D, D67S, F103T, W105F, Q112A
VL: B1 VL with L25A, R28S, S54A, V103L
B18: P11d4 (Fab fragment) (Fab, V domains shown)
VH: B1 VH
VL: B1 VL with L25P, F51M, K52R, S54A
notes: Fab
B19: A4B4 (Fab fragment) (Fab, V domains shown)
VH: B1 VH with P32A, G57D, W105F
VL: B1 VL with L25A, K52F, S54D, V103L
B20: A17d4 (Fab fragment) (Fab, V domains shown)
VH: B1 VH with P32A, H60S, W105F
VL: B1 VL with S24L, L25P, F51M, K52Y, L53Q, S54A, G90F, V103L
B21: A1h5 (Fab fragment) (Fab, V domains shown)
VH: B1 VH
VL: B1 VL with R28S, K52F, L53H, S54R, V103L
B22: A8c7 (Fab fragment) (Fab, V domains shown)
VH: B1 VH with P32A, G57D, H60S
VL: B1 VL with L25A, F51R, K52Y, L53Q, V103L

Biological target: T1, RSV F glycoprotein (NUF4)
Experiment: BIAcore, mAb vs NUF4 (2:1)

Binder	Kd [nM]	koff [s⁻¹]	kon [M⁻¹ s⁻¹]	number in parentheses after KD (fold against SYNAGIS = 1) [fold]
B1	4.22	0.00139	329000	74
B2	8.55	0.00313	366000	36
B3	2.65	0.00114	430000	118
B4	0.84	0.000236	282000	371
B5	1.87	0.000408	218000	167
B6	2.33	0.000636	273000	134

Biological target: T1, RSV F glycoprotein (NUF4)
Experiment: BIAcore, mAb vs NUF4 (1:1)

Binder	Kd [nM]	koff [s⁻¹]	kon [M⁻¹ s⁻¹]	number in parentheses after KD (fold against SYNAGIS = 1) [fold]
B1	0.69	0.000584	843000	13
B2	0.85	0.000766	904000	10
B3	0.65	0.000535	825000	13
B4	0.33	0.000178	541000	26
B5	0.73	0.000291	400000	12
B6	0.24	0.000229	943000	36

The binders below were run against RSV F protein (immobilized on the BIAcore sensor chip) (respiratory syncytial virus) (assay: BIAcore, immobilized F protein;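 note: fab fragments as analytes binding F protein coupled to the chip via EDC/NHS chemistry, with blank surface signal subtracted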).

Binder	koff	kon
B7	0.000178 s⁻¹ and 0.000473 s⁻¹	314000 M⁻¹ s⁻¹ and 444000 M⁻¹ s⁻¹
B8	0.000282 s⁻¹	663000 M⁻¹ s⁻¹
B9	0.000453 s⁻¹	790000 M⁻¹ s⁻¹
B10	0.00025 s⁻¹	735000 M⁻¹ s⁻¹
B11	0.00065 s⁻¹	185000 M⁻¹ s⁻¹
B12	0.00023 s⁻¹	743000 M⁻¹ s⁻¹
B13	0.000299 s⁻¹	527000 M⁻¹ s⁻¹
B14	0.000462 s⁻¹	757000 M⁻¹ s⁻¹
B15	0.000338 s⁻¹	605000 M⁻¹ s⁻¹
B16	0.000445 s⁻¹ and 0.000402 s⁻¹	
B17	0.000167 s⁻¹ and 0.000444 s⁻¹	
B18	0.000717 s⁻¹	570000 M⁻¹ s⁻¹ and 572000 M⁻¹ s⁻¹

The binders below were run against T2, F protein of wild type RSV A/Long (respiratory syncytial virus strain …, UniProt P12568 26-574) (assay: cell-based or functional assay).

Binder	EC50 (nM), in vitro microneutralization of RSV Long [nM]
B8	0.65
B9	2.5
B10	2.04
B12	0.62
B13	0.7
B18	> 20

Biological target: T2, F protein of wild type RSV A/Long
Experiment: cell-based or functional assay
Remark: another data set of the same source

Binder	Fold Difference (Control IC50) [fold]	Fold Difference (Curve IC50) [fold]	Mean IC50 (Control), RSV microneutralization [µg/mL]	Mean IC50 (Curve), RSV microneutralization [µg/mL]
B1	8	7	0.0645	0.0625
B2	19	21	0.0289	0.0217
B8	16	11	0.0326	0.0407
B19	13	11	0.0411	0.0414
B3	14	13	0.0383	0.0337
B9	4	3	0.125	0.157
B10	5	4	0.102	0.12
B4	24	20	0.0223	0.0231
B5	15	13	0.0354	0.0357
B12	17	16	0.031	0.0287
B13	15	10	0.0351	0.0464
B20	31	25	0.0171	0.0179
B21	3	2	0.176	0.194
B6	23	19	0.0235	0.0242
B22	34	3	0.157	0.177
B18			> 1	> 1

Source: patent publication US20030091584A1 (AstraZeneca / MedImmune, published 2003)
